Reference: paper PMC4267404, “Trihelix transcription factor GT-4 mediates salt tolerance via interaction with TEM2 in Arabidopsis”

T1: GST-GT-4 (Arabidopsis thaliana, UniProt Q9LU92 1-372)
T1 sequence: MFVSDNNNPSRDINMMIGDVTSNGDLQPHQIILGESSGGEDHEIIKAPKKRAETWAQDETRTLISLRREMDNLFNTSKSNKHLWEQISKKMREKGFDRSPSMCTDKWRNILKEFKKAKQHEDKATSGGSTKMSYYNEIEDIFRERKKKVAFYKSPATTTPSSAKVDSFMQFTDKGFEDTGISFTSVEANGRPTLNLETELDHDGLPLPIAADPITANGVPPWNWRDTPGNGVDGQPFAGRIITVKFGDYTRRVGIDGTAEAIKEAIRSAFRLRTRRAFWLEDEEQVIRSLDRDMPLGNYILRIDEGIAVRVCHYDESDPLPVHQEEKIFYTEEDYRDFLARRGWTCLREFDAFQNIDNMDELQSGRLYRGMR


Legend:
GST-GT-4 [1] = biological target: T1, GST-GT-4; experiment: EMSA; Probes annealed in 50 mM NaCl (70 C 5 min, then room temperature); EMSA binding buffer, pH and temperature not given (as in ref. 57); settings: protein: recombinant; tags: N-terminal GST (pGEX6p-1); label: digoxigenin
GST-GT-4 [2] = biological target: T1, GST-GT-4; experiment: EMSA; unlabeled competitor reduces band; Probes annealed in 50 mM NaCl (70 C 5 min, then room temperature); EMSA binding buffer, pH and temperature not given (as in ref. 57); settings: protein: recombinant; tags: N-terminal GST (pGEX6p-1); label: digoxigenin; annealed complementary oligos

Binder | binding result (GST-GT-4 [1]) | binding result (GST-GT-4 [2])
Cor15A promoter 60 bp fragment with GT-3b box (dsDNA) DNA 1: TTTCTTTAAGGAAATACATCAGAGAGAAAAATTATTACGAAACGATTCTATTACAAGTAA DNA 2: TTACTTGTAATAGAATCGTTTCGTAATAATTTTTCTCTCTGATGTATTTCCTTAAAGAAA | binds | 
P2 (GT-3b box) (dsDNA) DNA 1: CGGAAAAATCGAAAAATCGAAAAATT DNA 2: AATTTTTCGATTTTTCGATTTTTCCG |  | binds
P7 (MRE4) (dsDNA) DNA 1: TATCTCACCGTTACCTCTCACCGTTACCTCTCACCTACCATT DNA 2: AATGGTAGGTGAGAGGTAACGGTGAGAGGTAACGGTGAGATA |  | binds
P1 (GT-3 box) (dsDNA) DNA 1: CGGGGTAAATAGGTAAATAGGTAAATA DNA 2: TATTTACCTATTTACCTATTTACCCCG |  | binds
